From patent US8822187B1, “Polypeptides, nucleic acid molecules, and methods for synthesis of triterpenes” (University of Kentucky Research Foundation, priority 2011, dated 2014)
“Also recorded” adds a separate entry of the source.

B1: Botryococcus braunii race B squalene synthase-like 1 (SSL-1), wild type, hexa-histidine tagged, SEQ ID NO: 2 (Botryococcus braunii) (protein)
chain: MTMHQDHGVMKDLVKHPNEFPYLLQLAATTYGSPAAPIPKEPDRAFCYNTLHTVSKGFPRFVMRLPQELQDPICIFYLLLRALDTVEDDMNLKSETKISLLRVFHEHCSDRNWSMKSDYGIYADLMERFPLVVSVLEKLPPATQQTFRENVKYMGNGMADFIDKQILTVDEYDLYCHYVAGSCGIAVTKVIVQFNLATPEADSYDFSNSLGLLLQKANIITDYNEDINEEPRPRMFWPQEIWGKYAEKLADFNEPENIDTAVKCLNHMVTDAMRHIEPSLKGMVYFTDKTVFRALALLLVTAFGHLSTLYNNPNVFKEKVRQRKGRIARLVMSSRNVPGLFRTCLKLANNFESRCKQETANDPTVAMTIKRLQSIQATCRDGLAKYDTPSGLKSFCAAPTPTK
B2: SSL-2: Botryococcus braunii race B squalene synthase-like 2 enzyme; bacterial form is truncated SSL-2-tr2 (protein)
chain: MVKLVEVLQHPDEIVPILQMLHKTYRAKRSYKDPGLAFCYGMLQRVSRSFSVVIQQLPDELRHPICVFYLILRALDTVEDDMNLPNEVKIPLLRTFHEHLFDRSWKLKCGYGPYVDLMENYPLVTDVFLTLSPGAQEVIRDSTRRMGNGMADFIGKDEVHSVAEYDLYCHYVAGLVGSAVAKIFVDSGLEKENLVAEVDLANNMGQFLQKTNVIRDYLEDINEEPAPRMFWPREIWGKYAQELADFKDPANEKAAVQCLNHMVTDALRHCEIGLNVIPLLQNIGILRSCLIPEVMGLRTLTLCYNNPQVFRGVVKMRRGETAKLFMSIYDKRSFYQTYLRLANELEAKCKGEASGDPMVATTLKHVHGIQKSCKAALSSKELLAKSGSALTDDPAIRLLLLVGVVAYFAYAFNLGDVRGEHGVRALGSILDLSQKGLAVASVALLLLVLLARSRLPLLTSASSKQ

How the values were obtained:
[1] = Purified bacterial-expressed enzymes incubated with FPP, products by GC-MS or TLC/scintillation counting; assay type: biochemical; details: for squalene or botryococcene biosynthesis by purified enzyme in vitro: FPP as substrate, enzyme assayed alone
Excerpt: (§1) FIG. 6 depicts the functional characterization of the squalene synthase-like genes of Botryococcus braunii race B. The squalene synthase-like genes, SSL-1, SSL-2 and SSL-3, were expressed in yeast separately (SSL-1 (B), SSL-2(C) or SSL-3(D)) or in combinations (SSL-1+SSL-2(E), SSL-1+SSL-3(F)) and the hexane extractable metabolites profiled by GC-MS. The chemical profile of yeast not engineered with any gene constructs serves as the background control (A). […] Data (J) represents mean±S.E.M. obtained from three independent experiments (n=3). The chromatograms (A-I) are also annotated for the elution behavior of botryococcene (1), squalene (2), presqualene alcohol (3) and bisfarnesyl ether (4).
The recombinant vectors were transformed into E. coli strain BL21(DE3) according to the manufacturer's recommendations (Novagen). The selected lines were grown with kanamycin selection at 37° C. with vigorous shaking until the cultures reached an optical density of ˜0.8 (OD600 nm), then expression of the corresponding SSL gene induced by addition of 0.5 mM isopropylthio-β-D-galactoside (IPTG) and the cultures incubate for an additional 3 to 20 h with shaking at room temperature. One hundred ml of the culture was subject to centrifugation at 4,000 g for 10 min, the pelleted cells resuspended in 10 ml of lysis buffer containing 50 mM NaH2PO4, pH 7.8, 300 mM NaCl, 10 mM imidazole, 1 mM MgCl2, 1 mM PMSF, 1% glycerol (v/v), then sonicated 4× for 10 sec with a microprobe sonicator at 60% maximum power. The samples were cooled on ice for 2 min between sonication treatments. The sonicate was centrifuged at 16,000 g for 10 min at 4° C. and the supernatant used for purification of the hexa-histidine tagged enzymes.
Purification of the bacterial expressed enzymes was afforded by the amino-terminal hexa-histidine tag using His-Select Cobalt affinity gel (Sigma) columns according the manufacturer's recommendations. Recovery of proteins with the expected molecular sizes was determined by SDS-PAGE. The purified protein fractions were concentrated using Amicon Ultra (0.5 ml, 10K) centrifugation filter units and stored in 300 mM NaCl, 20 mM Tris-HCl pH 7.5, 5 mM dithiothreitol, 2 mM MgCL2, 50% glycerol (v/v) at −20° C. for 2-3 weeks without noticeable loss of activity.
Typical enzyme assays were initiated by mixing aliquots of purified enzyme with 50 mM Mops, pH 7.3, 20 mM MgCl2, 2.5 mM 2-mercaptoethanol, 10 μM [1-^3H]-FPP (˜2×10^5 dpm total), and 2 mM NADPH in total reaction volume of 50 μl. Reactions were incubated at 37° C. for 1 h and then extracted with 100 μl n-hexane or 100 ul MTBE. Forty μl of the n-hexane or MTBE extract was then spotted onto silica TLC plates with authentic standards of botryococcene and squalene and developed with n-hexane, or standards of bisfarnesyl ether and developed with n-hexane:MTBE, 25:1. The standards were visualized with iodine vapors and TLC zones corresponding to the standards were scrapped and analyzed by scintillation spectrometry. If Botryococcus lysate was added to enzyme assays, typically 5 μl of lysate (corresponding to 10 μg total protein) prepared from B. braunii cells according to Okada et al. (1) was added. […] Extracts were resuspended in 50 μl hexane and an aliquot analyzed by GC-MS with a Varian CP-3800 GC coupled to a Varian Saturn 2200 MS/MS (Varian Medical Systems) using a Supelco SLB-5 ms fused silica capillary column (30 m×0.25 mm×0.25 μM film thickness, Supelco). […]

[2] = tested on: TN7 yeast line; test: Expression of SSL genes in TN7 yeast line, hexane extractable metabolites by GC-MS; assay type: cell-based
Excerpt: as §1
FIG. 10 includes a comparison of botryococcene production in yeast engineered with different configurations of SSL-1 and SSL-3. Yeast line TN7 was engineered with the SSL-1 and SSL-3 genes on separate plasmids (squares), with gene fusions (SSL-1 fused to SSL-3 via a triplet repeat of GGSG (triangles), or vice versa (diamonds)), or with 63 or 71 amino acids of the carboxy terminus of the Botryococcus squalene synthase, sequences containing a membrane spanning domain, appended to the carboxy termini of the SSL-1 and SSL-3 enzymes, respectively (circles). The data represents mean±S.E.M.
The various recombinant yeast expression vectors were introduced into the TN7 yeast line via lithium acetate transformation, followed by selection for uracil and leucine auoxtrophic growth (Takahashi, et al. (2007)). […] Individual colonies of TN7 and the various TN7-transformants were subsequently grown in 25 ml of YPDE (nutrient rich) or Yeast Synthetic Drop-out medium (selection) for the indicated time at 25° C. before analyzing the cultures for production of novel triterpene components. In brief, 1 ml aliquots of the culture were combined with 1 ml of acetone, vigorously mixed, and incubated at room temperature for 10 min. One ml of hexane was added and mixed vigorously for 60 sec. […] The dried extract was resuspended in 50-500 μl of n-hexane and a 1 μl aliquot analyzed by GC-MS as described above. […]

[3] = SSL-2 incubated by itself, NADPH-dependent

Molecule	squalene or botryococcene biosynthesis by purified enzyme in vitro [1]	products accumulating in yeast ([2]; gene expressed separately in yeast)	bisfarnesyl ether share of products [1, 3]	squalene share of products [1, 3]	squalene accumulating, share of the total ([2]; expressed in yeast)
B1	did not exhibit either squalene nor botryococcene biosynthesis	accumulated to significant levels	–	–	–
B2	neither bacterial-expressed, purified enzymes exhibited any botryococcene biosynthesis; also recorded: low capacity for squalene biosynthesis	–	~90%	~10%	~10 % of the total
